These are literature values, as cited in article PMC8990303.

Series [1] deals with Porcine pancreatic alpha-amylase (PPA) (Sus scrofa) (UniProt P00690).
The target of series [2] is Human salivary alpha-amylase (HSA) (Homo sapiens) (UniProt P0DUB6).
Series [3] addresses Yellow mealworm alpha-amylase (TMA) (Tenebrio molitor) (UniProt P56634).
The target in series [4] is Bovine trypsin (Bos taurus) (UniProt P00760).
For series [5], the target named is Porcine pancreatic alpha-amylase (PPA) (Sus scrofa) (UniProt P00690). This is another data set of the same source.
For series [6], the target named is Factor XIIa (Homo sapiens) (UniProt P00748).
Sequence of UniProt P00748 (P00748 whole entry, looked up): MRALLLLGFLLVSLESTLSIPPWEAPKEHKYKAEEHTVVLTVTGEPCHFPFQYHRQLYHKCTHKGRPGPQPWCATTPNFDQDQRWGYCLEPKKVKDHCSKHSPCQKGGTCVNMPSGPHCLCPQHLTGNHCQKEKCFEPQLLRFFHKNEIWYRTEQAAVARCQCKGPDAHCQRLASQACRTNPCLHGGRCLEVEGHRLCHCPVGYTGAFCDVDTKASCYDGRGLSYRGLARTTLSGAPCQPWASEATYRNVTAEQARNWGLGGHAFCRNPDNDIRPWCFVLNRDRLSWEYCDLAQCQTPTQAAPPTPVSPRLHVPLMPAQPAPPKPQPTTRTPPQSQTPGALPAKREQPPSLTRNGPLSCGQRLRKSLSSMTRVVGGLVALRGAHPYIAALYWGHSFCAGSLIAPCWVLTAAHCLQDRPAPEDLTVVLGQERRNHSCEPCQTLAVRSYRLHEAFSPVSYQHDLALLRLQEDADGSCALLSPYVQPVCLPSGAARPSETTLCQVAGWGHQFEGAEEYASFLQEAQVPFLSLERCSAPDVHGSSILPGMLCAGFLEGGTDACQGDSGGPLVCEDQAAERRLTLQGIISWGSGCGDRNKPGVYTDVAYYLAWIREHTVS
Series [7] addresses Factor XIa (Homo sapiens) (UniProt P03951).
Sequence of UniProt P03951 (P03951 388-625): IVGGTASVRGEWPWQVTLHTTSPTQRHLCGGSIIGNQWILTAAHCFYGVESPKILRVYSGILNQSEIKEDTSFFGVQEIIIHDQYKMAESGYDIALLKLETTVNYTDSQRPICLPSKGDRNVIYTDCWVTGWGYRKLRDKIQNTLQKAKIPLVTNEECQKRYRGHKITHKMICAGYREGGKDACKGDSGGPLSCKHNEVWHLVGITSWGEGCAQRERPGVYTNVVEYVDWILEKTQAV
Series [8] deals with Bovine pancreatic trypsin (Bos taurus) (UniProt P00760).
For series [9], the target named is Yellow mealworm alpha-amylase (TMA) (Tenebrio molitor) (UniProt P56634). The source holds these as a separate data set.
The target of series [10] is Porcine alpha-amylase (Sus scrofa) (UniProt P00690).
Series [11] addresses Porcine trypsin (Sus scrofa) (UniProt P00761).
Sequence of UniProt P00761 (P00761 9-231): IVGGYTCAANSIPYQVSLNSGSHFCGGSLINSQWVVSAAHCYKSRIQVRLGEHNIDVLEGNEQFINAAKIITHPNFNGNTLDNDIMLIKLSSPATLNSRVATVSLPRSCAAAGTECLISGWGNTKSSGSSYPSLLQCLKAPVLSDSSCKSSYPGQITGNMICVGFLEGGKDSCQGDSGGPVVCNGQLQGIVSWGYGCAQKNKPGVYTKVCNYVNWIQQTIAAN
For series [12] the target is unchanged. This is another data set of the same source.
The target of series [13] is Porcine alpha-amylase (Sus scrofa) (UniProt P00690). The source holds these as a separate data set.

Like-named read-outs stand apart in the source and are kept apart here.

Sequence of UniProt P56634 (P56634 whole entry): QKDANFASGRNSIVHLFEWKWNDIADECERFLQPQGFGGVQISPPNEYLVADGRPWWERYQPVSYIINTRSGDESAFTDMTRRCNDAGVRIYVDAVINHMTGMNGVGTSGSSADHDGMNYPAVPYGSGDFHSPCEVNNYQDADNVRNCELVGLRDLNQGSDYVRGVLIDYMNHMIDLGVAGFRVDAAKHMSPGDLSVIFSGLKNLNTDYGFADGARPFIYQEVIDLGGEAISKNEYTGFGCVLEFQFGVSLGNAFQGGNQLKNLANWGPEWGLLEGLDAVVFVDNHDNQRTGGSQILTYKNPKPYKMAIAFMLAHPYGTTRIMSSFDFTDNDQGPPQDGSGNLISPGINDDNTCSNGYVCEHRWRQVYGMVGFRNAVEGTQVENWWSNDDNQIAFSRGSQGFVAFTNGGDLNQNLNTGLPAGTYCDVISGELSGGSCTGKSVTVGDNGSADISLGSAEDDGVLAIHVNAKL
Sequence of UniProt P0DUB6 (P0DUB6 16-511): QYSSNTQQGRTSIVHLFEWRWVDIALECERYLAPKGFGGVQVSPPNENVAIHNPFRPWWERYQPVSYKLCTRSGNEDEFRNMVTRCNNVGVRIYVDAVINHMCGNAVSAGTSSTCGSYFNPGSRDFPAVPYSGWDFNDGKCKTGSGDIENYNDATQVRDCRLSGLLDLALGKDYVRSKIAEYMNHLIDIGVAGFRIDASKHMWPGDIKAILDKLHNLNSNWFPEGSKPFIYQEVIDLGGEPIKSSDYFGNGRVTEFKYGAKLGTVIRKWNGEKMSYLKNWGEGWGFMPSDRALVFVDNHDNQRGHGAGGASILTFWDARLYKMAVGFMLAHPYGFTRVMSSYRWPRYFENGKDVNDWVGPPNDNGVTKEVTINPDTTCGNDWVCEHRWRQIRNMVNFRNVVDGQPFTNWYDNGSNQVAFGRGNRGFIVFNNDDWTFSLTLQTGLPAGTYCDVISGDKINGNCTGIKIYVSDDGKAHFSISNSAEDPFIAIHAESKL

As to “0.19 alpha-amylase inhibitor (from UniProt P01085)”, the results for the Ki in [1], in [2] and in series [3] were 57.3 nM, 0.29 nM and 0.85 nM, respectively.

For “Ragi bifunctional alpha-amylase/trypsin inhibitor (RBI) (from UniProt P01087)”, the inhibition constant (Ki) in series [4] is 1.2 nM; in series [5] it was 11 nM.

“Corn Hageman factor inhibitor (CHFI) (from UniProt P01088)”: the Ki in series [6] is 1 nM; in series [7], 5400 nM; in [8] it was 2.1 nM.

As for “0.28 alpha-amylase inhibitor (WMAI-1) (from UniProt P01083)”, the Ki in series [9] is 0.13 nM.

As for CM3 (from UniProt P17314), the Kd was 340 nM in [10] and 36 nM in series [11]. Also, the Ki in series [12] was 10.4 nM; in [13], 600 nM.
